From article PMC7145618 come the findings set out here.

For series [1], the target named is Drc (ssDNA-binding RNA Polymerase Cofactor), Pseudomonas virus LUZ7 gp14 (Pseudomonas virus LUZ7). The series can be described thus: crystal structure.
Series [2] concerns the target Drc(Δ67–99) (Pseudomonas virus LUZ7). The series can be described thus: SEC.
The target in series [3] is T1, Drc (gp14) (Pseudomonas phage LUZ7, UniProt C8ZKB3).
T1 sequence: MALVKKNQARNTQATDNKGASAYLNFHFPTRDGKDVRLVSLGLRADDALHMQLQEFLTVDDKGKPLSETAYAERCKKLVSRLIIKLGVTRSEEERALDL
In words: EMSA. In general terms: In EMSA bound probe runs differently from free probe, usually more slowly.

The target in series [4] is T1, Drc (gp14). The series can be described thus: EMSA. The source holds these as a separate data set.

One may read the stoichiometry N as a count of units in the complex or per binding partner.

Read-outs that look alike come from different tables or passages of the source.

Consider “Drc (ssDNA-binding RNA Polymerase Cofactor), Pseudomonas virus LUZ7 gp14 (natural protein)”, for which the stoichiometry N in series [1] came to 2.

For the molecule Drc(Δ67–99) (domain or fragment), in series [2], the stoichiometry N was determined as 2.

B1: internally melted duplex (dsDNA)
DNA 1: GGGCGGCGGTTTTTTTTTTGCGGGGCGG
DNA 2: CCGCCCCGCTTTTTTTTTTCCGCCGCCC
For B1, the binding result with Drc (gp14) [3] is recorded as “binds”.

On to TGAGTTTTTTTCATTTTTTGCGTAAATTTC (ssDNA) [30-nt ssDNA], for which, in the series with Drc (gp14) [4], the binding result is “binds”.
